From patent US7588931B2, “High arachidonic acid producing strains of Yarrowia lipolytica” (E. I. du Pont de Nemours and Company, priority 2004, dated 2009)

B1: GPDIN: glyceraldehyde-3-phosphate dehydrogenase + intron promoter, SEQ ID NO:159 (nucleic acid, listed as Yarrowia lipolytica)
DNA: AAACACGCAGTAGGATGTCCTGCACGGGTCTTTTTGTGGGGTGTGGAGAAAGGGGTGCTTGGAGATGGAAGCCGGTAGAACCGGGCTGCTTGTGCTTGGAGATGGAAGCCGGTAGAACCGGGCTGCTTGGGGGGATTTGGGGCCGCTGGGCTCCAAAGAGGGGTAGGCATTTCGTTGGGGTTACGTAATTGCGGCATTTGGGTCCTGCGCGCATGTCCCATTGGTCAGAATTAGTCCGGATAGGAGACTTATCAGCCAATCACAGCGCCGGATCCACCTGTAGGTTGGGTTGGGTGGGAGCACCCCTCCACAGAGTAGAGTCAAACAGCAGCAGCAACATGATAGTTGGGGGTGTGCGTGTTAAAGGAAAAAAAAGAAGCTTGGGTTATATTCCCGCTCTATTTAGAGGTTGCGGGATAGACGCCGACGGAGGGCAATGGCGCTATGGAACCTTGCGGATATCCATACGCCGCGGCGGACTGCGTCCGAACCAGCTCCAGCAGCGTTTTTTCCGGGCCATTGAGCCGACTGCGACCCCGCCAACGTGTCTTGGCCCACGCACTCATGTCATGTTGGTGTTGGGAGGCCACTTTTTAAGTAGCACAAGGCACCTAGCTCGCAGCAAGGTGTCCGAACCAAAGAAGCGGCTGCAGTGGTGCAAACGGGGCGGAAACGGCGGGAAAAAGCCACGGGGGCACGAATTGAGGCACGCCCTCGAATTTGAGACGAGTCACGGCCCCATTCGCCCGCGCAATGGCTCGCCAACGCCCGGTCTTTTGCACCACATCAGGTTACCCCAAGCCAAACCTTTGTGTTAAAAAGCTTAACATATTATACCGAACGTAGGTTTGGGCGGGCTTGCTCCGTCTGTCCAAGGCAACATTTATATAAGGGTCTGCATCGCCGGCTCAATTGAATCTTTTTTCTTCTTCTCTTCTCTATATTCATTCTTGAATTAAACACACATCAACATGGCCATCAAAGTCGGTATTAACGGATTCGGGCGAATCGGACGAATTGTGAGTACCATAGAAGGTGATGGAAACATGACCCAACAGAAACAGATGACAAGTGTCATCGACCCACCAGAGCCCAATTGAGCTCATACTAACAGTCGACAACCTGTCGAACCAATTGATGACTCCCCGACAATGTACTAACACAGGTCCTGCCC
modifications: misc_feature: Promoter GPDIN
B2: GPD: Y. lipolytica glyceraldehyde-3-phosphate dehydrogenase promoter, SEQ ID NO:158 (nucleic acid, listed as Yarrowia lipolytica)
DNA: GACGCAGTAGGATGTCCTGCACGGGTCTTTTTGTGGGGTGTGGAGAAAGGGGTGCTTGGAGATGGAAGCCGGTAGAACCGGGCTGCTTGTGCTTGGAGATGGAAGCCGGTAGAACCGGGCTGCTTGGGGGGATTTGGGGCCGCTGGGCTCCAAAGAGGGGTAGGCATTTCGTTGGGGTTACGTAATTGCGGCATTTGGGTCCTGCGCGCATGTCCCATTGGTCAGAATTAGTCCGGATAGGAGACTTATCAGCCAATCACAGCGCCGGATCCACCTGTAGGTTGGGTTGGGTGGGAGCACCCCTCCACAGAGTAGAGTCAAACAGCAGCAGCAACATGATAGTTGGGGGTGTGCGTGTTAAAGGAAAAAAAAGAAGCTTGGGTTATATTCCCGCTCTATTTAGAGGTTGCGGGATAGACGCCGACGGAGGGCAATGGCGCCATGGAACCTTGCGGATATCGATACGCCGCGGCGGACTGCGTCCGAACCAGCTCCAGCAGCGTTTTTTCCGGGCCATTGAGCCGACTGCGACCCCGCCAACGTGTCTTGGCCCACGCACTCATGTCATGTTGGTGTTGGGAGGCCACTTTTTAAGTAGCACAAGGCACCTAGCTCGCAGCAAGGTGTCCGAACCAAAGAAGCGGCTGCAGTGGTGCAAACGGGGCGGAAACGGCGGGAAAAAGCCACGGGGGCACGAATTGAGGCACGCCCTCGAATTTGAGACGAGTCACGGCCCCATTCGCCCGCGCAATGGCTCGCCAACGCCCGGTCTTTTGCACCACATCAGGTTACCCCAAGCCAAACCTTTGTGTTAAAAAGCTTAACATATTATACCGAACGTAGGTTTGGGCGGGCTTGCTCCGTCTGTCCAAGGCAACATTTATATAAGGGTCTGCATCGCCGGCTCAATTGAATCTTTTTTCTTCTTCTCTTCTCTATATTCATTCTTGAATTAAACACACATCAACATG
modifications: misc_feature: Promoter GPD

What was measured:
Format in all cases: cell-based, Yarrowia lipolytica
[1] = tested on: β-glucuronidase (GUS) reporter; assay: Relative promoter activity rank from comparative GUS reporter studies (histochemical, fluorometric and/or Real Time PCR); conditions: relative to other promoters
Description: The activity of GPM is about the same as TEF, while the activity of GPD, FBA, FBAIN, FBAINm, GPDIN, GPAT, YAT1 and EXP1 are all greater than TEF (activity is quantified in a relative manner in the column titled “Activity Rank”, wherein a ‘1’ corresponds to the promoter with lowest activity, while a ‘7’ corresponds to the promoter with highest activity). […] GUS activity in each expressed construct was measured by histochemical and/or fluorometric assays (Jefferson, R. A. Plant Mol. Biol. Reporter 5:387-405 (1987)) and/or by use of Real Time PCR.

GUS mRNA = assay: Comparative analysis of promoters by quantitative (Real Time) PCR of GUS mRNA; conditions: for transcription activity relative to the TEF promoter: after 24 hrs in HGM, ATCC #76982 strains
Description: The transcriptional activities of the TEF, GPD, GPDIN, FBA and FBAIN promoters were determined in Y. lipolytica containing the pY5-30, PYZGDG, pDMW222, pDMW212 and pDMW214 constructs by quantitative PCR analyses. This required isolation of RNA and real time RT-PCR.
More specifically, Y. lipolytica ATCC #76982 strains containing pY5-30, PYZGDG, pDMW222, pDMW212 and pDMW214 were grown from single colonies in 6 mL of MM in 25 mL Erlenmeyer flasks for 16 hrs at 30° C. Each of the 6 mL starter cultures was then added to individual 500 mL flasks containing 140 mL HGM and incubated at 30° C. for 4 days. In each interval of 24 hrs, 1 mL of each culture was removed from each flask to measure the optical density, 27 mL was removed and used for a fluorometric GUS assay (as described above), and two aliquots of 1.5 mL were removed for RNA isolation. The culture for RNA isolation was centrifuged to produce a cell pellet.
The RNA was isolated from Yarrowia strains according to the modified Qiagen RNeasy mini protocol (Qiagen, San Diego, Calif.). Briefly, at each time point for each sample, 340 μL of Qiagen's buffer RLT was used to resuspend each of the two cell pellets. The buffer RLT/cell suspension mixture from each of the two tubes was combined in a bead beating tube (Bio101, San Diego, Calif.). About 500 μL of […] glass beads was added to the tube and the cells were disrupted by bead beating 2 min at setting 5 (BioPulverizer, Bio101 Company, San Diego, Calif.). The disrupted cells were then pelleted by centrifugation at 14,000 rpm for 1 min and 350 μl of the supernatent was transferred to a new microcentrifuge tube. Ethanol (350 μL of 70%) was added to each homogenized lysate. After gentle mixing, the entire sample was added to a RNeasy mini column in a 2 mL collection tube. The sample was centrifuged for 15 sec at 10,000 rpm. Buffer RW1 (350 μL) was added to the RNeasy mini column and the column was centrifuged for 15 sec at 10,000 rpm to wash the cells. The eluate was discarded. Qiagen's DNasel stock solution (10 μL) was added to 70 μl of Buffer RDD and gently mixed. This entire DNase solution was added to the RNeasy mini column and incubated at room temperature for 15 min. After the incubation step, 350 μL of Buffer RW1 was added to the mini column and the column was centrifuged for 15 sec at 10,000 rpm. The column was washed twice with 700 μL […]. RNase-free water (50 μL) was added to the column. The column was centrifuged for 1 min at 10,000 rpm to elute the RNA.
A two-step RT-PCR protocol was used, wherein total Yarrowia RNA was first converted to cDNA and then cDNA was analyzed using Real Time PCR. The conversion to cDNA was performed using Applied Biosystems' High Capacity cDNA Archive Kit (PN#4322171; Foster City, Calif.) and Molecular Biology Grade water from MediaTech, Inc. (PN# 46-000-Con; Holly Hill, Fla.). Total RNA from Yarrowia (100 ng) was converted to cDNA by combining it with 10 μl of RT buffer, 4 μl of 25×dNTPs, 10 μl 10× Random Hexamer primers, 5 μl Multiscribe Reverse Transcriptase and 0.005 μl RNase Inhibitor, and brought to a total reaction volume of 100 μl with water. The reactions were incubated in a thermocycler for 10 min at 25° C. followed by 2 hrs at 37° C. The cDNA was stored at −20° C. prior to Real Time analysis.
Real Time analysis was performed using the SYBR Green PCR Master Mix from Applied Biosystems (PN# 4309155). The Reverse Transcription reaction (2 μl) was added to 10 μl of 2×SYBR PCR Mix, 0.2 μl of 100 μM Forward and Reverse primers for either URA (i.e., primers YL-URA-16F and YL-URA-78R [SEQ ID NOs:183 and 184]) or GUS (i.e., primers GUS-767F and GUS-891R [SEQ ID NO:185 and 186]) and 7.2 μl water. The reactions were thermocycled for 10 min at 95° C. followed by 40 cycles of 95° C. for 5 sec and 60° C. for 1 min in an ABI 7900 Sequence Detection System instrument. Real time fluorescence data was collected during the 60° C. extension during each cycle. […]

[2] = tested on: β-glucuronidase (GUS) reporter; assay: Comparative analysis of promoters by histochemical analysis of GUS expression; conditions: ATCC #76982 strains, MM, FIG. 5B
Description: Comparative studies investigating the promoter activities of the TEF, GPD, GPDIN, GPM, GPAT, FBA, FBAIN and YAT1 promoters were performed, by synthesizing constructs comprising each promoter and the E. coli gene encoding β-glucuronidase (GUS) as a reporter gene (Jefferson, R. A. Nature. 14(342):837-838 (1989)). Then, GUS activity was measured by histochemical and fluorometric assays (Jefferson, R. A. Plant Mol. Biol. Reporter 5:387-405 (1987)) and/or by using Real Time PCR for mRNA quantitation.
Yarrowia lipolytica ATCC #76982 strains containing plasmids pY5-30, pYZGDG, pYZGMG, pDMW212 and pDMW214 were grown from single colonies in 3 mL MM at 30° C. to an OD600˜1.0. Then, 100 μl of cells were collected by centrifugation, resuspended in 100 μl of histochemical staining buffer, and incubated at 30° C. Staining buffer was prepared by dissolving 5 mg of 5-bromo-4-chloro-3-indolyl glucuronide (X-Gluc) in 50 μl dimethyl formamide, followed by the addition of 5 mL 50 mM NaPO4, pH 7.0.
In a separate experiment, Y. lipolytica Y2034 strains containing plasmids pY5-30, pYGPAT-GUS, pYAT-GUS and pDMW214 were grown from single colonies in 5 mL SD media at 30° C. for 24 hrs to an OD600˜8.0. Then, 1 mL of cells were collected by centrifugation. The remaining cultures were centrifuged and washed 2× with HGM, resuspended in 5 mL each of HGM and allowed to grow at 30° C. further. After 24 and 120 hrs, ˜0.25 mL of each culture were centrifuged to collect the cells. Cell samples were resuspended individually in 100 μl of histochemical staining buffer (supra). Zymolase 20T (5 μl of 1 mg/mL; ICN Biomedicals, Costa Mesa, Calif.) was added to each, and the mixture incubated at 30° C. […]

| Molecule | Activity “Rank” [1] | transcription activity relative to the TEF promoter (GUS mRNA) | transcriptional activity relative to the TEF promoter (GUS mRNA; final day of the 4 day experiment in HGM) | promoter activity by histochemical staining [2] |
| --- | --- | --- | --- | --- |
| B1 | 3 | ~4.4 times | ~2.6 times | – |
| B2 | 2 | about 2 times | – | active |
